B1: ZNF449 (parent)
chain: RIHSGEEPHKCPECGKRFLRSSDL
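Further: lentivirally expressed fusions sorted by FACS into six bins by GFP to DsRed ratio, PSI derived from sequencing read proportions per bin multiplied by bin number.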

Variants of: B1
Assay: protein stability index of a GFP-peptide fusion (GPS, HEK-293T) (PSI 1-6); higher = more stable
Conditions: c terminus: a fixed tail appended
Variant C11A has a protein stability index of 4.32. C11K gave a protein stability index of 4.5. With C11S the protein stability index was 3.72. Variant C11R has a protein stability index of 4.32. C11W gave a protein stability index of 3.79. C11F gave a protein stability index of 3.54. C11D showed a protein stability index of 4.17. Variant C11N has a protein stability index of 4.57. Variant C11T has a protein stability index of 4.17. C11V showed a protein stability index of 4.19. In the case of C11L, the protein stability index is reported as 4.11. For C11I, the protein stability index was 4.51. With C11Y the protein stability index was 4.21. Work on C11P yielded a protein stability index of 4.23. For C11H, the protein stability index was 4.41. In the case of C11M, the protein stability index is reported as 4.35. In the case of E6Y, the protein stability index is reported as 2.27. In the case of E6I, the protein stability index is reported as 3.09. Variant E6W has a protein stability index of 2.08. For E6M, the protein stability index was 2.57. For E6S, the protein stability index was 1.79. E6R showed a protein stability index of 3.24. With E6H the protein stability index was 2.79. Variant E6K has a protein stability index of 2.88. Variant E6V has a protein stability index of 2.28. Variant E6T has a protein stability index of 2.71. E6N gave a protein stability index of 3.08. Variant E6G has a protein stability index of 3.23. In the case of E6D, the protein stability index is reported as 3.25. E6F gave a protein stability index of 2.95. For E6L, the protein stability index was 2.92. With E6Q the protein stability index was 3.1. In the case of E6A, the protein stability index is reported as 3.24. E6P showed a protein stability index of 3.69. In the case of I2S, the protein stability index is reported as 3.18. For I2K, the protein stability index was 3.43. I2T gave a protein stability index of 4.76. Work on I2D yielded a protein stability index of 4.06. Work on I2F yielded a protein stability index of 3.1. Work on I2C yielded a protein stability index of 5.05. In the case of I2L, the protein stability index is reported as 3.77. I2M showed a protein stability index of 3.48. In the case of I2H, the protein stability index is reported as 3.46. Variant I2V has a protein stability index of 3.98. For I2P, the protein stability index was 3.57. In the case of I2R, the protein stability index is reported as 3.7. For I2A, the protein stability index was 3.42. I2W showed a protein stability index of 3.9. For I2Q, the protein stability index was 3.91. Work on I2E yielded a protein stability index of 3.5. In the case of I2G, the protein stability index is reported as 2.78. Variant I2N has a protein stability index of 4.19. I2Y showed a protein stability index of 3.79. For S4H, the protein stability index was 3.18. S4K gave a protein stability index of 3.19. For S4T, the protein stability index was 3.53. Variant S4R has a protein stability index of 2.54. For S4M, the protein stability index was 2.55. With S4Q the protein stability index was 4.12. Work on S4L yielded a protein stability index of 3.19. For S4P, the protein stability index was 3.16. With S4A the protein stability index was 3.34. In the case of S4V, the protein stability index is reported as 2.44. In the case of S4F, the protein stability index is reported as 2.3. With S4D the protein stability index was 3.56. Variant S4W has a protein stability index of 2.5. For S4E, the protein stability index was 3.7. S4G gave a protein stability index of 3.06. S4N showed a protein stability index of 4. With S4I the protein stability index was 3.07. For S4Y, the protein stability index was 2.84. P12V showed a protein stability index of 3.5. P12I showed a protein stability index of 2.94. P12N gave a protein stability index of 4.18. Variant P12H has a protein stability index of 3.24. For P12S, the protein stability index was 3.66. P12M gave a protein stability index of 3.36. In the case of P12T, the protein stability index is reported as 3.76. Variant P12R has a protein stability index of 2.92. Variant P12L has a protein stability index of 3.23. In the case of P12A, the protein stability index is reported as 3.15. For P12E, the protein stability index was 4.41. P12W showed a protein stability index of 2.05. Work on P12K yielded a protein stability index of 3.2. With P12C the protein stability index was 3.32. For P12Y, the protein stability index was 3.12. P12F gave a protein stability index of 3.29. With P12Q the protein stability index was 3.33. P12G gave a protein stability index of 3.08. Work on P12D yielded a protein stability index of 4.36. In the case of L19K, the protein stability index is reported as 4.04. L19T showed a protein stability index of 3.65. With L19V the protein stability index was 3.32. L19G showed a protein stability index of 4.31. For L19I, the protein stability index was 2.76. L19P showed a protein stability index of 3.54. L19R gave a protein stability index of 3.74. Work on L19F yielded a protein stability index of 3.26. With L19Q the protein stability index was 4.41. L19S showed a protein stability index of 4.05. Variant L19A has a protein stability index of 3.96. L19W gave a protein stability index of 3.09. With L19N the protein stability index was 3.27. Work on L19M yielded a protein stability index of 4.05. Variant L19E has a protein stability index of 4.32. For L19Y, the protein stability index was 3.23. L19H showed a protein stability index of 3.41. L19C gave a protein stability index of 4.48. L19D showed a protein stability index of 3.88. Work on K16R yielded a protein stability index of 3.9. In the case of K16H, the protein stability index is reported as 3.19. Work on K16V yielded a protein stability index of 2.37. In the case of K16M, the protein stability index is reported as 2.61. With K16I the protein stability index was 2.93. Work on K16G yielded a protein stability index of 3.13. With K16D the protein stability index was 4.41. For K16W, the protein stability index was 2.69. Work on K16N yielded a protein stability index of 3.58. In the case of K16S, the protein stability index is reported as 3.68. With K16C the protein stability index was 3.32. For K16Y, the protein stability index was 3.77. K16L showed a protein stability index of 2.78. K16E gave a protein stability index of 3.99. For K16P, the protein stability index was 3.82. Variant K16F has a protein stability index of 2.55. In the case of K16T, the protein stability index is reported as 3.68. For K16Q, the protein stability index was 3.66. With E13H the protein stability index was 3.34. For E13G, the protein stability index was 3.21. E13K gave a protein stability index of 2.72. With E13R the protein stability index was 2.84. Work on E13C yielded a protein stability index of 3.71. For E13V, the protein stability index was 3.44. With E13A the protein stability index was 2.72. With E13W the protein stability index was 3.86. In the case of E13N, the protein stability index is reported as 3.43. E13S gave a protein stability index of 3.63. In the case of E13M, the protein stability index is reported as 2.92. E13L gave a protein stability index of 3.38. E13F gave a protein stability index of 3.77. In the case of E13Q, the protein stability index is reported as 2.13. E13Y gave a protein stability index of 3.54. Work on E13D yielded a protein stability index of 2.59. With E13P the protein stability index was 3.6. In the case of E13T, the protein stability index is reported as 3.41. In the case of E13I, the protein stability index is reported as 3.26. Work on K10Y yielded a protein stability index of 3.94. K10E gave a protein stability index of 3.57. K10Q gave a protein stability index of 3.39. K10L gave a protein stability index of 3.96. In the case of K10M, the protein stability index is reported as 3.17. K10G showed a protein stability index of 3.82. In the case of K10T, the protein stability index is reported as 3.82. Variant K10V has a protein stability index of 4.17. In the case of K10W, the protein stability index is reported as 3.72. Variant K10N has a protein stability index of 3.42. With K10S the protein stability index was 3. Variant K10D has a protein stability index of 4.19. Work on K10A yielded a protein stability index of 3.35. In the case of K10R, the protein stability index is reported as 3.55. K10P showed a protein stability index of 3.7. With K10I the protein stability index was 3.74. K10H gave a protein stability index of 2.95. Work on H9C yielded a protein stability index of 4.35. For H9R, the protein stability index was 3.18. With H9P the protein stability index was 3.2. For H9T, the protein stability index was 3.44.

Source: the supplement of paper PMC10567573
